Data on 25 molecules can be found in patent US20200317779A1 (GREEN CROSS, published 2020).

Assay [1] concerns the target T1, CD3 on human T cells (H9 cells, ATCC HTB-176) (human).
T1 construct: whole, on cells; The target is printed as 'human T cells'
Description: flow cytometry on H9 cells, 1 µg antibody per 2x10^5 cells in 100 µl, PE anti-human IgG detection. The procedure:
The resultant was stored for 25 minutes in the dark at 4° C. Subsequently, treatment with 3 ml of FACS buffer was performed, and centrifugation was performed at 2,000 rpm for 3 minutes. Then, the supernatant was discarded.
Next, 100 μl FACS buffer containing 1 μg of phycoerythrin (PE)-conjugated human IgG antibody was used to treat the cells, and the resultant was stored for 25 minutes in the dark at 4° C. Subsequently, treatment with 3 ml of FACS buffer was performed, and centrifugation was performed at 2,000 rpm for 3 minutes. Then, the supernatant was discarded.
The cells were treated with a 4% formaldehyde solution, stored in the dark at 4° C. for 30 minutes, and then treated with 3 ml of FACS buffer. Centrifugation was performed at 2,000 rpm for 3 minutes, and then the supernatant was discarded. Treatment with 350 μl of FACS buffer was performed, and a flow cytometer was used to perform affinity analysis of the antibodies for the human T cells. The analysis results are illustrated in FIG. 1.
Background: A flow cytometer gives signals particle by particle.

The target of assay [2] is T2, CD3 on monkey T cells (monkey splenocytes) (monkey).
T2 construct: whole, on cells; The target is printed as 'monkey T cells'
Description: flow cytometry on monkey splenocytes, 1 µg antibody per 10^6 cells in 100 µl, PE anti-human IgG detection. The procedure:
Specifically, monkey splenocytes were prepared at 10⁶ cells in 100 μl FACS solution per antibody sample, and then 1 μg of antibody was used to treat the cells. The resultant was stored for 25 minutes in the dark at 4° C. Subsequently, treatment with 3 ml of FACS buffer was performed, and centrifugation was performed at 2,000 rpm for 3 minutes. Then, the supernatant was discarded.
Next, 100 μl FACS buffer containing 1 μg of PE-conjugated human IgG antibody was used to treat the cells, and the resultant was stored for 25 minutes in the dark at 4° C. Subsequently, treatment with 3 ml of FACS buffer was performed, and centrifugation was performed at 2,000 rpm for 3 minutes. Then, the supernatant was discarded.
The cells were treated with a 4% formaldehyde solution, stored in the dark at 4° C. for 30 minutes, and then treated with 3 ml of FACS buffer. Centrifugation was performed at 2,000 rpm for 3 minutes, and then the supernatant was discarded. Treatment with 350 μl of FACS buffer was performed, and a flow cytometer was used to perform affinity analysis of the antibodies for the […]. The analysis results are illustrated in FIG. 2.

Where a chain is given by its changes, count along the chain named.

T1 sequence (P07766 23-207, chain 1 of 3): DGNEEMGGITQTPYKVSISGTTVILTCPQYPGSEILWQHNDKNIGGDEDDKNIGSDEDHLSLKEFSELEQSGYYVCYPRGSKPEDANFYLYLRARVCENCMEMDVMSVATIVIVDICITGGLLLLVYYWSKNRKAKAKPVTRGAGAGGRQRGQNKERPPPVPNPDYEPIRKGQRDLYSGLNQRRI
T1 sequence (P04234 22-171, chain 2 of 3, further chain): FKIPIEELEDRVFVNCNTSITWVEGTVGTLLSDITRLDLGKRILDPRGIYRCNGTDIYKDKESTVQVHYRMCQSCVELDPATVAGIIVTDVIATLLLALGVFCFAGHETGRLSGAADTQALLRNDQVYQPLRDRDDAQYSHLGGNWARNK
T1 sequence (P09693 23-182, chain 3 of 3, further chain): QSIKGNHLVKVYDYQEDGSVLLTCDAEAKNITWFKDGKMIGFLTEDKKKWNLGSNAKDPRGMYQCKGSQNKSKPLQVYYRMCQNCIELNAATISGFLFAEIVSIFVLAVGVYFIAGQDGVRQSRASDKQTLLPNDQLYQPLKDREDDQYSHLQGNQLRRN

B1: H16 (antibody, human IgG1, lambda, L234A L235A, V domains shown)
VH: EVQLVESGGGLVQPGGSLKLSCAASGFTFNTYAMNWVRQASGKGLEWVARIRSKYNNYATYYADSVKDRFTISRDDSQSTLYLQMNSLKTEDTAVYYCVRHGNFGNSYVSWFAYWGQGTLVTVSS
VL: QAVVTQEPSLTVSPGGTVTLTCRSSTGAVTTSNYANWVQQKPGQAPRGLIGGTNKRAPWTPARFSGSLLGDKAALTLSGAQPEDEAEYYCALWYSNLWVFGGGTKLTVLG
notes: humanized SP34 IgG1, lambda
With B1, the “Mean : PE-A” value in assay [1] stood at 9350. In addition, the “Mean : Comp-PE-A” value in assay [2] was 13400.

B2: F16 (antibody, human IgG1, lambda, L234A L235A, V domains shown)
VH: B1 VH with Q78K, S79N
VL: B1 VL
notes: humanized SP34 IgG1, lambda
Turning to B2, the “Mean : PE-A” value in assay [1] came out at 9530. The “Mean : Comp-PE-A” value in assay [2] was determined as 11900.

B3: C15 (antibody, human IgG1, lambda, L234A L235A, V domains shown)
VH: B1 VH with A49G, L81A
VL: B1 VL with D71G
notes: humanized SP34 IgG1, lambda
B3: in assay [1], the “Mean : PE-A” value is 23100. Moreover, the “Mean : Comp-PE-A” value in assay [2] came to 17800.

B4: Mouse human chimeric SP34 IgG1 antibody (antibody, V domains shown)
VH: B1 VH with G15K, S41P, T80I, S87N, V95M
VL: QAVVTQESALTTSPGETVTLTCRSSTGAVTTSNYANWVQEKPDHLFTGLIGGTNKRAPGVPARFSGSLIGDKAALTITGAQTEDEAIYFCALWYSNLWVFGGGTKLTVLG
For the molecule B4, in assay [2], the “Mean : Comp-PE-A” value stood at 19800.

B5: A16 (antibody, human IgG1, lambda, L234A L235A, V domains shown)
VH: B1 VH with A49G, Q78K, S79N, L81A
VL: B1 VL
notes: humanized SP34 IgG1, lambda
B5: the “Mean : PE-A” value in assay [1] is 16700. Also, the “Mean : Comp-PE-A” value in assay [2] turned out to be 17600.

B6: B15 (antibody, human IgG1, lambda, L234A L235A, V domains shown)
VH: B1 VH with A49G, Q78K, S79N
VL: B1 VL with D71G
notes: humanized SP34 IgG1, lambda
As for B6, the “Mean : PE-A” value in assay [1] was 22900. The “Mean : Comp-PE-A” value in assay [2] came out at 16300.

B7: F15 (antibody, human IgG1, lambda, L234A L235A, V domains shown)
VH: B1 VH with Q78K, S79N
VL: B1 VL with D71G
notes: humanized SP34 IgG1, lambda
B7: in assay [1], the “Mean : PE-A” value was found to be 11200. Moreover, in assay [2], the “Mean : Comp-PE-A” value was 14700.

B8: E16 (antibody, human IgG1, lambda, L234A L235A, V domains shown)
VH: B1 VH with Q78K, S79N, L81A
VL: B1 VL
notes: humanized SP34 IgG1, lambda
As to B8, the “Mean : PE-A” value in assay [1] was 11100. In addition, the “Mean : Comp-PE-A” value in assay [2] worked out at 13900.

B9: D08 (antibody, human IgG1, lambda, L234A L235A, V domains shown)
VH: B1 VH with A49G
VL: B1 VL with V38F
notes: humanized SP34 IgG1, lambda; also called D8
With B9, the “Mean : PE-A” value in assay [1] is 4220. Besides, in assay [2], the “Mean : Comp-PE-A” value was determined as 5120.

B10: A15 (antibody, human IgG1, lambda, L234A L235A, V domains shown)
VH: B1 VH with A49G, Q78K, S79N, L81A
VL: B1 VL with D71G
notes: humanized SP34 IgG1, lambda
On to B10, for which the “Mean : PE-A” value in assay [1] is 24000. In addition, in assay [2], the “Mean : Comp-PE-A” value is 15800.

B11: D07 (antibody, human IgG1, lambda, L234A L235A, V domains shown)
VH: B1 VH with A49G
VL: B1 VL with V38F, D71G
notes: humanized SP34 IgG1, lambda; also called D7
Turning to B11, the “Mean : PE-A” value in assay [1] is 3770. Further, in assay [2], the “Mean : Comp-PE-A” value is 6760.

B12: A08 (antibody, human IgG1, lambda, L234A L235A, V domains shown)
VH: B1 VH with A49G, Q78K, S79N, L81A
VL: B1 VL with V38F
notes: humanized SP34 IgG1, lambda; also called A8
As for B12, the “Mean : PE-A” value in assay [1] worked out at 3080. The “Mean : Comp-PE-A” value in assay [2] turned out to be 5530.

B13: B16 (antibody, human IgG1, lambda, L234A L235A, V domains shown)
VH: B1 VH with A49G, Q78K, S79N
VL: B1 VL
notes: humanized SP34 IgG1, lambda
As for B13, in assay [1], the “Mean : PE-A” value amounted to 16800. Further, in assay [2], the “Mean : Comp-PE-A” value was 17200.

B14: G15 (antibody, human IgG1, lambda, L234A L235A, V domains shown)
VH: B1 VH with L81A
VL: B1 VL with D71G
notes: humanized SP34 IgG1, lambda
For the molecule B14, in assay [1], the “Mean : PE-A” value came to 11600. The “Mean : Comp-PE-A” value in assay [2] stood at 17300.

B15: B08 (antibody, human IgG1, lambda, L234A L235A, V domains shown)
VH: B1 VH with A49G, Q78K, S79N
VL: B1 VL with V38F
notes: humanized SP34 IgG1, lambda; also called B8
For the molecule B15, in assay [1], the “Mean : PE-A” value was found to be 3780. The “Mean : Comp-PE-A” value in assay [2] stood at 4590.

B16: E15 (antibody, human IgG1, lambda, L234A L235A, V domains shown)
VH: B1 VH with Q78K, S79N, L81A
VL: B1 VL with D71G
notes: humanized SP34 IgG1, lambda
Regarding B16, in assay [1], the “Mean : PE-A” value came to 12800. Further, the “Mean : Comp-PE-A” value in assay [2] was found to be 13500.

B17: D15 (antibody, human IgG1, lambda, L234A L235A, V domains shown)
VH: B1 VH with A49G
VL: B1 VL with D71G
notes: humanized SP34 IgG1, lambda
Consider B17, for which the “Mean : PE-A” value in assay [1] is 22600. Moreover, the “Mean : Comp-PE-A” value in assay [2] came to 18600.

B18: D16 (antibody, human IgG1, lambda, L234A L235A, V domains shown)
VH: B1 VH with A49G
VL: B1 VL
notes: humanized SP34 IgG1, lambda
B18: the “Mean : PE-A” value in assay [1] came out at 18300. For the same molecule, the “Mean : Comp-PE-A” value in assay [2] is 18600.

B19: B07 (antibody, human IgG1, lambda, L234A L235A, V domains shown)
VH: B1 VH with A49G, Q78K, S79N
VL: B1 VL with V38F, D71G
notes: humanized SP34 IgG1, lambda; also called B7
In the case of B19, in assay [1], the “Mean : PE-A” value came out at 4810. The “Mean : Comp-PE-A” value in assay [2] stood at 4790.

B20: C08 (antibody, human IgG1, lambda, L234A L235A, V domains shown)
VH: B1 VH with A49G, L81A
VL: B1 VL with V38F
notes: humanized SP34 IgG1, lambda; also called C8
Take B20: the “Mean : PE-A” value in assay [1] is 4680. In addition, the “Mean : Comp-PE-A” value in assay [2] turned out to be 5670.

B21: A07 (antibody, human IgG1, lambda, L234A L235A, V domains shown)
VH: B1 VH with A49G, Q78K, S79N, L81A
VL: B1 VL with V38F, D71G
notes: humanized SP34 IgG1, lambda; also called A7
Consider B21, for which the “Mean : PE-A” value in assay [1] was 4310. Moreover, the “Mean : Comp-PE-A” value in assay [2] worked out at 6680.

B22: H15 (antibody, human IgG1, lambda, L234A L235A, V domains shown)
VH: B1 VH
VL: B1 VL with D71G
notes: humanized SP34 IgG1, lambda
Regarding B22, in assay [1], the “Mean : PE-A” value was 9620. The “Mean : Comp-PE-A” value in assay [2] is 16700.

B23: G16 (antibody, human IgG1, lambda, L234A L235A, V domains shown)
VH: B1 VH with L81A
VL: B1 VL
notes: humanized SP34 IgG1, lambda
For B23, the “Mean : PE-A” value in assay [1] is 10300. For the same molecule, the “Mean : Comp-PE-A” value in assay [2] was determined as 14000.

B24: C07 (antibody, human IgG1, lambda, L234A L235A, V domains shown)
VH: B1 VH with A49G, L81A
VL: B1 VL with V38F, D71G
notes: humanized SP34 IgG1, lambda; also called C7
Consider B24, for which, in assay [1], the “Mean : PE-A” value was 4620. Besides, the “Mean : Comp-PE-A” value in assay [2] turned out to be 5380.

B25: C16 (antibody, human IgG1, lambda, L234A L235A, V domains shown)
VH: B1 VH with A49G, L81A
VL: B1 VL
notes: humanized SP34 IgG1, lambda
B25: the “Mean : PE-A” value in assay [1] came to 17700. For the same molecule, in assay [2], the “Mean : Comp-PE-A” value came out at 12100.
